Data taken from the nanobody polyreactivity screen of Harvey et al. (2022).

Experiment: yeast display, Sf9 membrane polyspecificity reagent, FACS + sequencing; frameworks hold sequencing errors
How it was run: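 Galactose induction of a Saccharomyces cerevisiae BJ5465 synthetic nanobody display library ran 36–48 hours. The cells were then stained for 1 hour at 4 °C with 10% biotinylated, detergent-solubilized Sf9 membrane reagent, pulled down on streptavidin microbeads and FACS-sorted into low and high (top ~1%) gates on expression and reagent-binding fluorescence. Labels for polyreactivity follow the gate of origin.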

Sequence	polyreactivity (PSR sort gate)
QVQLVESGGGLVQAGGSLRLSCAASGFIFTNVMGWYRQAPGKERELVAAISGRGTSTYYADSVKGRFTISRDNAKNTVYLQMNSLKPEDTAVYYCAAYFTSRLDYWGQGTQVTVSS	high polyreactivity
QVQLVESGGGLVQAGGSLRLSCAASGLTFLVYAMGWYRQAPGKERELVAAITSIGDSTFYADSVKGRFTISRDNAKNTVYLQMNSLKPEDTAVYYCNADGPAGDNKFTLLDYDYWGQGTQVTVSS	low polyreactivity
QVQLVEAGGGLVQAGGSLRLSCAASGITLYLYVMGWYRQAPGKEREFVAAIRWSGGSTYYADSVKGRFTISRDNAKNTVYLQMNSLKPEDTAVYYCNAEVYCYYSARRPGYEYWGQGTQVTVSS	low polyreactivity
QVQLVESGGGLVQAGGSLRLSCSASGSIIYANAMGWYRPAPGKEREFVATITDSGAITYYADSVKGRFTISRDNAKNTVYLQMNSLKPEDTAVYYCNKDLVVYYVPTHDYDYWGQGTQVTVSS	low polyreactivity
QVQLVESGGGLVQAGGSLRLSCAASGIIFRLNTMGWYRQAPGKEREFVAAITSGGSTHYADSVKGRFTISRDNAKNTVYLQMNSLKPEDTAVYYCAAGHRANYWAWHFYYPGDYWGQGTQVTVSS	low polyreactivity
QVQLVESGGGLVQAGGSLRFSCAASGSIFSSYDMGWYRQAPGKERELVAAITRGGTTNYADSVKGRFTISRDNAKNTVYLQMNSLKPEDTAVYYCNVAYGLLGISPGGDYWGQGTQVTVSS	low polyreactivity
QVLLVESGGGLVQAGGSLRLSCAASGFTFGTNAMVWYRQAPGKERELVAAISSRGGSTYYADSVKGRFTISRDNAKNTVYLLMNSLNPEDTAVYYCARRVARRQHEYGYWGQGTQVTVSS	high polyreactivity
QVQLVESVGGLVQAGGSLRLSCAASGFIFSWYAMGWYRQAPGKERELVAAINSGGRTSYADSVKGRFTISRDNAKNTVYLQMNSLKPEDTAVYYCAAPVYYYNRARYSYDYWGQGTQVTVSS	high polyreactivity
QVQLVESGGGLVQAGGSLRLSCAASGSTFGYNAMGWYRQAPGKERELVARITSSGGSTYYADSVKGRFTISRDNAKNTVYLQMNSLKPEDTAVYYCAAGYLSGNYARYGYWGQGTQVTVSS	high polyreactivity
QVQLVESGGCLVQAGGSLRLSCSASGLTFRYYAMGWYRQAPGKESELVAAITRRGSTYYADSVKGRFTISRDIAKNTVYLQMNSLKPEDSAVYYCATVTGFHSSPLRDLDYWGQGTLVTVSS	high polyreactivity
QVQLVESGGGLVQAGGSLRLSCAASGGTFNSNAMGWYRQAPGKERELVASITWRCGTYYADSVKGRFTISRDNAKNTVYLQMNSLKPVDTAVYYCAADTYYKGDYWGQGTQVTVSS	high polyreactivity
QVQLGESGGGLVQSGGSLRLSCAASGSIFDWYDKGWYRQAPGKERELVATITRDGSTNYADSVKGRFTISRDNAKNTVYLQMNSLKPEDTAVYYCAAESRRFWYGLFGNEYGYWGQGTQVTVSS	low polyreactivity
QVQLVESGGGLDQARGSLRLSCAASGSIFGENAMGWYRQAPGKERELVAAISTSGGTTYYADSVKGRFTISRDNAKNTVYLQMNSLKPEDTAVYYCAKPYTSFSPYDYWGQGTQVTVSS	low polyreactivity
QVQLVESGGGLVQAGGSLRLSCAASGLIFENNAMGWYRQAPGKERELVAAITKGGGSTYYADSVKGRFTISRDNAMNTVYLQMNSLKPEDTAVYYCAKVHPWHRYWQYWYDYWGQGTQVTVSS	low polyreactivity
QVQLVESGGGLVQAGGSLRLSCAASGRTFVYYAMGWYRQAPGKEREFVATITSSGGSTYYADSVKGRFTISRDNAKNTVYLQMNSLKPEDTAVYYCNADSVSSPPYYDYWGQGTQVTVSS	high polyreactivity
QVQLEDSGGGLDQAGVSLRLSCAASGSTFLLYAMVGYRQAPGKERELVAAISRSSTSTYYADSVKGRFTISRDNAKNTVYLQMNSLKPEDTAVYYCAAVVTVQYSQPYDHWGQGTQVTVSS	high polyreactivity
QVQLEESGGGLVQAGGSLRLSCAASGSTFLRYAIGWYRQAPGKEMELVAAITASGGSTFYADSVKGRFTISRDYAKNTVYLQMNSLKPEDTPVYYCAADVSYIGKYSHDLWIYGYYYWGQGTQVTVSS	low polyreactivity
QVQLVDSGGGLVQAGGSLRLSCAASGFILYFNAMGWYRQAHGKERELVAAISRGDGSTYADSVKGRFTISRDNAKNTVYLQMNSLKAQDTAVYYCNAGLGVVVTHYVGYGYDSWGQGTQVTVSS	low polyreactivity
QVQLVESGGGLVQAGGSLRLSCAASGSTFEQYAMGWYRQAPGKERELVAAINRGGSTYYADSVKGRFTISRDNAKNTVYLQMKSLKPEDTAVYYCAVYAFVRYRSRYGYWGQGTQVTVSS	high polyreactivity
QVQLVESGGGLVQAGGSLRLSCAASGITFEGYAMGWYRQAPGKERELVAAIRSSGTSTYYADSVKGRFTISRDNAKNTVYLQMYSLKPEDTAVYYCNRARSSSRYDYWGQGTQVTVSS	low polyreactivity
QVQLVETGGGLVQAGGSLRLSCAASGSTFVSNAMGWYSQAPGKERELVAAISYIGGGTYYADSEKGRFTISRDNAKNTVYLQMNSLKPEDTAVYYCAAGTPYDLDDYCGQGTQVTVSS	low polyreactivity
QVQLVESGGGLVQAGGSLRLSCAASGRIFGLYAMGWYRQAPGKERELVAAITSSTGSTYYADSVKGRFTISRDNAKNTVYLQMNSLKPEDTAVYYCAADLYSPSIYGYIYYTWLDYWGQGTQVTVSS	high polyreactivity

Sequence	polyreactivity (PSR sort gate)
QVQLVESGVGLVQAGGSLRLSCAASGSTFQWYAMGWYIQAPGKERELVAAINKSGGTTYYADSVKGRFTISRDNAKNTVYLLMNSLKPEDTAVYYCATDTPVVYQPGNMDYWGQGTQVTVSS	low polyreactivity
QVQLVESVGGLVQAGGSLRLSCDASGSTFTSYTMGWYRPAPGKERELVAAISRSDGDRTYYADSVKGRFTISRDNAKNTVYLQMNSLKPEDTAVYYCAAEVTPRIVRYYYWGQGTQVTVSS	high polyreactivity
QVQLVESGGGLVQAGGSLRISCAASGRILLRNVMGWYRQAPGKERELVAVITRTGITYYAYSVKGRFTISRDNAKNTVYLQMNSLKPEDTAVYYCAAGLPKYEHDYWGQGTQVTVSS	low polyreactivity
QVQLVESGGGLVQAGGSLRLSCAASGGIFWYYTRVWYRQAPGKERELVATISSGGRTYYADSVKGRFTISRDNAKNTVYLQMNSLKPEHTAVYYCAAVGWYHDYYWGQGTQVTVSS	high polyreactivity
QVQLVESGGGLVQAGGSLRLSCAASGSIFVDYAMGWYRQAPGKERELVAAITSGGRTNYADSVKGRFTISRDNAKNTVYLQMKSLKPEDTAVYYCNKTRYTNYYTTTFDYWGQGTQVTVSS	low polyreactivity
QVQLVESGGGLVQAGGSLRLSCAASGFTFWRNAMGWYRQAPGKERELVAAISSGTGRTYYADSVKGRFTISRDNAKNTVYLQMNSLKPEDTAVYYCAKVNGRTSYGTSTRDYWGQGTQVTVSS	low polyreactivity
QVQLVESGGGLVQAGGSLRLSCAASGRIFGPYAMGWYRQAPGKERELVASISYSRGSTYYADSVKGRFTISRDNANNTVYLQMNSLKPEDTAVYYCAKGGYWRGYNYWGQGSQVTVSS	low polyreactivity
QVQLVESGGGLVQAGGSLRLSCAASGRIFGSYAMGWYRQAPGKERELVAAISGDGDSTYYADSVKGRFTISRDNAKNTVYFQMNSLKPEDTAVYYCAAEPNVYFSVFVLFPSDYWGQGTQVTVSS	low polyreactivity
QVQLVESGGGLVQAGGSLRLSCAASGRTFVYYDMGWYRQAPGKERELVASISSGDSTNYADSVKGRFTISRDNAKNTVYLQMNSLKPEDTAVYDCAARGYLRGEQLYVFIRYDYWGQGTQVTVSS	low polyreactivity
QVQLVESGGGLVQAGGSLRLSCAASGIIFLDYVMGWYRQAPGKERELVAAINSGGSTYYADSVKGRFTISRDNAKNTVYLQMNSLKPEDTAVYYCAADDYYKFDYWGQGTQVTVSS	low polyreactivity
QVQLVESGGGLVQAGGSLRLSCAASGRTFVHYTMGWYRQAPGKERELVATISTSGGSTSYADSVKGRFTISRDNAKNTVYVQMNSLKPEDTAVYYCAARWYFPDRVKYVYWGQGTQVTVSS	low polyreactivity
QVQLVESGGGLVQAGGSLRLSCAASGSIFTYYAMGWYRQAPGKERELVAAINWSGGSTYYADSVKGRFTISRDNAKNTVYLQMNSLKPEDTAVYYCATDYYARRHSPRYDYWGQGTQVTVSS	low polyreactivity
QVQLVESGGGVVQAGGSLRLSCAASGFIFSYNVMVWYRQAPGKERELVAAISSSGGSTYYADSVKGRFTISRDNAKNTAYLQMNSLKPEDTAVYYCATRVSRSFRAYDYWGQGTQVTVSS	high polyreactivity
QVQLVESGGGLVQAGGSLRLSCAASGRTFVNYAMGWYRQAPGKERELVAAISGGGGTNYADSVKGRFTISRDNAKNTVYLHMNSLKPQDTAVYYCAADTNGYEFDYWGQGTLVTVSS	low polyreactivity
QVQLVESGGGLVQAGGSLRLSCAASGSTLISYAMGSYRQAPGKERELDAAITYNGGTTHYADSVKGRLTISRDNAKNSVYLQLKSLKPEDTAVYYCAKAQGHVRVSRGLQGGRYDYWGQGTQVTVSS	low polyreactivity
QVQLVESGGGLVQAGGSLRLSCAASGSTFILNAMGWYRQAPGKERELVAAISRSGGNTYYADSVKGRFTISRDIAKNTVYLQMNSLKPEDTAVYYCAATRRSHYYYWGQGTQVTVSS	high polyreactivity
QVQLVESGGGLVQAGGSLRLSCAASGNILIGNVMGWYRPAPGKERELVAAITSGGDTYYADSVKGRFTITRDNAKNTVYLQMNSLKPEDTAVYYCAADRPGQPKYEYWGQGTQVTVSS	low polyreactivity
QVQLVESGGGLVQAGGSLRLSCAASGRTFGRNAMGWYRQAPGKERELVAAITWSGGRTYYADSVKGRFSISRDNAKNTVYLQMNSLKPEDTAVYYCARGSSSISIFYRYDYWGQGTQVTVSS	high polyreactivity
QVQLVESGGGLVQAGGSLRLSCAASGSIFYVNAMGWYRQAPGTERELVAAISWRSGRTYYADSVKGRFTISRDHAKNTVYLQMHSLKPEDTAVYYCAARVRRGSTQAQYYYWGQGTQVTVSS	high polyreactivity
QVQLVESAGGLVQAVGSLRLSCAASGRICGIYAMGWYRQAPGKERELVAAISFIGGRTYYADSVKGRFTISRDNAKNTVYLQMNSLKPEDTAVYDCAARTVPSSRREYWGQGTQVTVSS	high polyreactivity
QVQLVESGGGLVQAGCSLRLSCAASGSIYLVNAMGWYRQAPGKERELVAAIDWSGDTTYYADSVKGRFTISRDYEKNTVYLQMNRLKPEDTAVYYCAAEYEFHEYDYWGQGTQVTVSS	high polyreactivity
